Assay results from publication PMC7294632, “Structure-guided protein engineering increases enzymatic activities of the SGNH family esterases” (Biotechnology for Biofuels, 2020).

Legend:
[1] = substrate: CCCCCC(=O)Oc1ccc([N+](=O)[O-])cc1; assay: purified protein; assay type: biochemical, Croceicoccus marinus; details: 100 mM Tris-HCl pH 7.5, 20 °C, substrate 0.05-2 mM
[2] = substrate: CCCC(=O)Oc1ccc([N+](=O)[O-])cc1; assay: purified protein; assay type: biochemical, Altericroceibacterium indicum; details: 100 mM Tris-HCl pH 7.5, 40 °C, substrate 0.05-2 mM

B1: CrmE10 (Croceicoccus marinus) (protein)
chain: MADGEAAGQQADAVMPTGPAIDVLAFGDSLFAGYRLDRDESYPARLQAALRERGLNVNVTNAGVSGDTTAAGLQRIDFVLDSMAGEPDLVLLELGANDMLRGLPAEEARRNLDTILQRLDQRDIPVMVYGMRAAPNLGGDYGRSFDSIFPDLADKYDAELVPFFIEPLIFDRSLVQQDQLHPTAQGVDAMVEQTVEQVEDRIDDL
notes: expressed in E. coli BL21 (DE3) from pSMT3, N-terminal His-Sumo tag removed with ULP1; monomer in solution by MALS, domain-swapped dimer in crystal
Q: What does the source list for B1?
A: Km [1]: 160 µM; kcat [1]: 29.4 s⁻¹

B2: AlinE4 (Altericroceibacterium indicum) (protein)
chain: SMGESRVILAFGDSLFAGYGLDKGESYPAKLETALRSHGINARIINAGVSGDTTAAGLQRIKFVLDSQPDKPELAIVELGGNDLLRGLSPAEARQNLSGILEELQRRKIPILLMGMRAPPNLGAKYQREFDGIYPYLAEKYDAKLVPFFLEAVADRPDLIQKDHVHPTARGVEELVSATSNAVAKALPAKK
notes: as for B1
Q: Which results are given for B2?
A: Km [2]: 100 µM; kcat [2]: 25.8 s⁻¹
